Square brackets hold non-standard residues; d marks the D form. Peptide text beside a SMILES is read from it. * marks the point of attachment. X3 = O=C(CCCCCNCc1nc2c(sc3cc(Br)cnc32)c(=O)[nH]1)*
Columns and labels:
Assay in all cases: Kinase profiling (radiometric filter-binding)
Assay type in all cases: biochemical
[1] = target: PHK (Homo sapiens, UniProt Q16816); conditions: 1 µM inhibitor, read-out: Residual activity, %
Procedure, shortened: (§1)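 Single-point selectivity screen at 1 µM total inhibitor concentration across a panel of 139 or 140 human PKs, using radioactive filter-binding detection with ATP near or below KM; data are % activity remaining versus untreated control.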

[2] = target: EPH-A2 (Homo sapiens, UniProt P29317); conditions: EPH-A2, 1 µM inhibitor; read-out: Residual activity, %
EPH-A2, sequence (P29317 24-976): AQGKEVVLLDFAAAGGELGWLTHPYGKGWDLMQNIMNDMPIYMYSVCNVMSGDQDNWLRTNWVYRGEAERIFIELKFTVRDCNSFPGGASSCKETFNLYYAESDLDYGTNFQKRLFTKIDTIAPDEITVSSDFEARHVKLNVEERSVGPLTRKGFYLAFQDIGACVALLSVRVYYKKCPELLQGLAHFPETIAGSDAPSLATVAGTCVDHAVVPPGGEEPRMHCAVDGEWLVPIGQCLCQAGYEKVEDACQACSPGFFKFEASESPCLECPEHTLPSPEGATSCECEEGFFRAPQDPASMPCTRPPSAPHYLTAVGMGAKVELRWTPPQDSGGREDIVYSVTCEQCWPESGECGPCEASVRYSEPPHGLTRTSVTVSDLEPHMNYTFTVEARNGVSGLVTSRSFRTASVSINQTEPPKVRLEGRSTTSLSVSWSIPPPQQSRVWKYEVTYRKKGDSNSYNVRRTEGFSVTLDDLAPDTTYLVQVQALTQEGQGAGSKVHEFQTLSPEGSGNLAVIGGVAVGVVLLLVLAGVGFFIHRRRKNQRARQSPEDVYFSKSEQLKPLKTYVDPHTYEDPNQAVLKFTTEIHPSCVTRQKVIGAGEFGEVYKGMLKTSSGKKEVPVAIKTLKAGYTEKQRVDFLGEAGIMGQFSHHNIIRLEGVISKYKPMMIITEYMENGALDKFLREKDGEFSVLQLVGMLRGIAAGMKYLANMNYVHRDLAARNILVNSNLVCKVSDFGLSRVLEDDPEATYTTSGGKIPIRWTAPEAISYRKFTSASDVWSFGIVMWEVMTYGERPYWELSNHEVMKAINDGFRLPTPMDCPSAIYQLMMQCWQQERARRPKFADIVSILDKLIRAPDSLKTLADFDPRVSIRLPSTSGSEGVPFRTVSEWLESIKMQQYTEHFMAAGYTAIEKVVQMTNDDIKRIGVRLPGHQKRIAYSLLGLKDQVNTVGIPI
Procedure, shortened: as §1

[3] = target: T1, TGFBR1 (Homo sapiens, UniProt P36897); conditions: TGFBR1, 1 µM inhibitor; read-out: Residual activity, %
T1 sequence (P36897 34-503): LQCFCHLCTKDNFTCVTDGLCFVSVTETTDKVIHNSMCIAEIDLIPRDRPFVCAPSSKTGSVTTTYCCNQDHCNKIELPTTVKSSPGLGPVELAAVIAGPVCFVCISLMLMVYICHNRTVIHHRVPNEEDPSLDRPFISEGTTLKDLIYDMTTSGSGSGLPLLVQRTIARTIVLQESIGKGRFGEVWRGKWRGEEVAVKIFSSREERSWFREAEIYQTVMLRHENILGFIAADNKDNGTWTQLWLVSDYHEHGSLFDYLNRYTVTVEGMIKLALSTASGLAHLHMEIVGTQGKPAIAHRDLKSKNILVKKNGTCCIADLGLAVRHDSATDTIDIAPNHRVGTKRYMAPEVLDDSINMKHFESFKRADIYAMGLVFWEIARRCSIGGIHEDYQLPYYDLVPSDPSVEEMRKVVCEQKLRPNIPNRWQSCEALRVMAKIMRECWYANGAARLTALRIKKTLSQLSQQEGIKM
Procedure, shortened: as §1

[4] = target: T2, DYRK3 (Homo sapiens, UniProt O43781); conditions: DYRK3, 1 µM inhibitor; read-out: Residual activity, %
T2 sequence (O43781 1-588): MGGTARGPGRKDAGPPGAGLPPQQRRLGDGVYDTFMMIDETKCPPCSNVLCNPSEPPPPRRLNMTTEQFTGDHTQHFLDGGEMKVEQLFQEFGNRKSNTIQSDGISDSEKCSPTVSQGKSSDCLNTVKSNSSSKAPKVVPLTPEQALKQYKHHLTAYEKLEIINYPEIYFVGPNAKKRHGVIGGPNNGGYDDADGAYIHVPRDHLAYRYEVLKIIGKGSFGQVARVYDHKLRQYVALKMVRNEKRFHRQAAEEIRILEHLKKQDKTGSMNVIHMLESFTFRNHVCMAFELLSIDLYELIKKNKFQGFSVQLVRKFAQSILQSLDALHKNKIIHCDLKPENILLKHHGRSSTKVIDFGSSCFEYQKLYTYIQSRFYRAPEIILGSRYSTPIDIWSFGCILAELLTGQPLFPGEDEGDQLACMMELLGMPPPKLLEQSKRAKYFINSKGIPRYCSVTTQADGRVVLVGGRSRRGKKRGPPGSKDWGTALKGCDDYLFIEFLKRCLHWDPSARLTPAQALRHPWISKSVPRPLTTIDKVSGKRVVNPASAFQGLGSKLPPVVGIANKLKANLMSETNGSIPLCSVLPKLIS
Procedure, shortened: as §1

[5] = target: TrkA (Homo sapiens, UniProt P04629); conditions: 1 µM inhibitor, read-out: Residual activity, %
Procedure, shortened: as §1

[6] = target: HIPK1 (Homo sapiens, UniProt Q86Z02); conditions: HIPK1, 1 µM inhibitor; read-out: Residual activity, %
Procedure, shortened: as §1

[7] = target: PIM1 (Homo sapiens, UniProt P11309); conditions: PIM1, 1 µM inhibitor; for remaining activity at 1 µM: read-out: Residual activity, %
PIM1, sequence (P11309 whole entry): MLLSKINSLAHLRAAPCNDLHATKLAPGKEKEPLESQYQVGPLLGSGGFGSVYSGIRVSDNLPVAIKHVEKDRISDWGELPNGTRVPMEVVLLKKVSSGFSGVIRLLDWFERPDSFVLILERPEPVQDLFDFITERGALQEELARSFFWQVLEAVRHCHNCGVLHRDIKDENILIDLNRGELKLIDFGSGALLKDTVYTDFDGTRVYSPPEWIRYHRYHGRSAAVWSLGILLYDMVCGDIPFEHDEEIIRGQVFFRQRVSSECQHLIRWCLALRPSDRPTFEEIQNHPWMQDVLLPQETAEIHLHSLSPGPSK
Procedure, shortened: as §1

[8] = target: MARK3 (Homo sapiens, UniProt P27448); conditions: MARK3, 1 µM inhibitor; read-out: Residual activity, %
MARK3, sequence (P27448 whole entry): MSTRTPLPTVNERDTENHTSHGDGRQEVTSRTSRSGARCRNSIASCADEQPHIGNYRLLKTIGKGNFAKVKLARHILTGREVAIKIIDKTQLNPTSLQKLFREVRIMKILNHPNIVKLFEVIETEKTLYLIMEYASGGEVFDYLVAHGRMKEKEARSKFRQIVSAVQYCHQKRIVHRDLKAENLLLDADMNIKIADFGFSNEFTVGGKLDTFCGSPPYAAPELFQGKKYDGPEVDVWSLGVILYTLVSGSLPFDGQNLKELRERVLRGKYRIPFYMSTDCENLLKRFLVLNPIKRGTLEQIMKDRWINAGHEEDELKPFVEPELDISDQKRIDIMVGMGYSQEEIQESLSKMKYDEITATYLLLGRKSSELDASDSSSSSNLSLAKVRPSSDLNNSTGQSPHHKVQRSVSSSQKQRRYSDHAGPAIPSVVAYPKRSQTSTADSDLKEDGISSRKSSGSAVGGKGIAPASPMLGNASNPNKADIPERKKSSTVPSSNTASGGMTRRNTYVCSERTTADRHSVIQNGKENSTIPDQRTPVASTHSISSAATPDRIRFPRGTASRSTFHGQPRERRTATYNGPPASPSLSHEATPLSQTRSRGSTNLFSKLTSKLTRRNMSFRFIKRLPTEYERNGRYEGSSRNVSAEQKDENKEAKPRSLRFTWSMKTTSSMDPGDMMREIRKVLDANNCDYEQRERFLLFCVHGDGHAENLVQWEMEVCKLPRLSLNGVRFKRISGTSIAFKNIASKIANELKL
Procedure, shortened: as §1

[9] = target: T3, TAK1 (Homo sapiens, UniProt O43318); conditions: TAK1, 1 µM inhibitor; read-out: Residual activity, %
T3 sequence (O43318 1-303 limits assumed): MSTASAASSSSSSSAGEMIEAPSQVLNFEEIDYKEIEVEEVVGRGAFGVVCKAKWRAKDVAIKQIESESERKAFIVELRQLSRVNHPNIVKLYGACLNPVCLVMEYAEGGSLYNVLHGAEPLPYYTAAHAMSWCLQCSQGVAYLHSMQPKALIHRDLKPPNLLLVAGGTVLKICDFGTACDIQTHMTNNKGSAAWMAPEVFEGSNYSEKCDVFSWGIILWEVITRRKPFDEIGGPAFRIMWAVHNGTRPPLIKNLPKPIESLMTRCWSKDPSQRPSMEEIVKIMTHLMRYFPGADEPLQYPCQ
Procedure, shortened: as §1

[10] = target: T4, PDK1 (Homo sapiens, UniProt O15530); conditions: PDK1, 1 µM inhibitor; read-out: Residual activity, %
T4 sequence (O15530 1-556): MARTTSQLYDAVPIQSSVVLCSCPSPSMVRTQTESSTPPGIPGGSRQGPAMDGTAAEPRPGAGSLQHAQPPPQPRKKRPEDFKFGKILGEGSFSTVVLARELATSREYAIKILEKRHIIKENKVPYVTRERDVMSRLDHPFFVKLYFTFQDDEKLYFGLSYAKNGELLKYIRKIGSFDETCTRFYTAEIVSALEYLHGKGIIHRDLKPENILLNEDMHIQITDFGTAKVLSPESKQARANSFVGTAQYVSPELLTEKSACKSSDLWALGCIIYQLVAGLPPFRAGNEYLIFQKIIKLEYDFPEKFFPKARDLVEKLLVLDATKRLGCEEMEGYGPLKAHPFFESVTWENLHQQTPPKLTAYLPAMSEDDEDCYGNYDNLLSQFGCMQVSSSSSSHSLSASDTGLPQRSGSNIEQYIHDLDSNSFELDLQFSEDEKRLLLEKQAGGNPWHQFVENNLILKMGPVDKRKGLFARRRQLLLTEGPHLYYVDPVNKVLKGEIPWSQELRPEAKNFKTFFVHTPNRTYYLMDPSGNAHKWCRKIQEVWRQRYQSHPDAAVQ
Procedure, shortened: as §1

[11] = target: HIPK2 (Homo sapiens, UniProt Q9H2X6); conditions: HIPK2, 1 µM inhibitor; read-out: Residual activity, %
HIPK2, sequence (Q9H2X6 whole entry): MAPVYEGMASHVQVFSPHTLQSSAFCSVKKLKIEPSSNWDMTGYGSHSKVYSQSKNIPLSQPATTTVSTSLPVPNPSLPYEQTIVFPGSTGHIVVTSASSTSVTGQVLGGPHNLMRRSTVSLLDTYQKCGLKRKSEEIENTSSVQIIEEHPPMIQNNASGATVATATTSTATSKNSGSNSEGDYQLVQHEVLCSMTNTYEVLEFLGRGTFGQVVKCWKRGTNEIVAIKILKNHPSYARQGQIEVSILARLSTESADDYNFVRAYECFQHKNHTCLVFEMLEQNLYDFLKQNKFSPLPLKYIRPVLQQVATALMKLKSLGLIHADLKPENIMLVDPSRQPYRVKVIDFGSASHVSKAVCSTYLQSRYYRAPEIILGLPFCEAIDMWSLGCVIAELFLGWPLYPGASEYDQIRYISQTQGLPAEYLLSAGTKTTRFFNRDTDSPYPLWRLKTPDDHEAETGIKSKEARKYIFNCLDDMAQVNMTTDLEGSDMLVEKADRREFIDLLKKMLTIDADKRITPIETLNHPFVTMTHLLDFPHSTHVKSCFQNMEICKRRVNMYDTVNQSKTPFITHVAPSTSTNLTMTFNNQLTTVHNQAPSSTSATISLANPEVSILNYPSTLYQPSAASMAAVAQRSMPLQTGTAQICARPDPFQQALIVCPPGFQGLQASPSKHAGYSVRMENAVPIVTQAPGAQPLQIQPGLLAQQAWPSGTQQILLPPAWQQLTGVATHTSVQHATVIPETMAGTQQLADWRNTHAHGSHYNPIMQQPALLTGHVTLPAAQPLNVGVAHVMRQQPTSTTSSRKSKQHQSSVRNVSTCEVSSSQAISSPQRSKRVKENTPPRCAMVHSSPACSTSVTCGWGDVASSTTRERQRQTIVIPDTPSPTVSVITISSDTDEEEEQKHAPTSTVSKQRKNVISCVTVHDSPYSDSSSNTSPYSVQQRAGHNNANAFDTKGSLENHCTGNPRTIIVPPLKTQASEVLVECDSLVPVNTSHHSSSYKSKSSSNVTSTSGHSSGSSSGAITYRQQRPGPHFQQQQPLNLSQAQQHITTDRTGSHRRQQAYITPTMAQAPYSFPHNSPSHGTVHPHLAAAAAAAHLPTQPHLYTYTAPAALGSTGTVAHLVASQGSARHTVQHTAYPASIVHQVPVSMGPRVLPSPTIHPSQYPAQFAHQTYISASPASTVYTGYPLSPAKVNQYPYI
Procedure, shortened: as §1

[12] = target: MAP4K5 (Homo sapiens, UniProt Q9Y4K4); conditions: MAP4K5, 1 µM inhibitor; read-out: Residual activity, %
MAP4K5, sequence (Q9Y4K4 whole entry): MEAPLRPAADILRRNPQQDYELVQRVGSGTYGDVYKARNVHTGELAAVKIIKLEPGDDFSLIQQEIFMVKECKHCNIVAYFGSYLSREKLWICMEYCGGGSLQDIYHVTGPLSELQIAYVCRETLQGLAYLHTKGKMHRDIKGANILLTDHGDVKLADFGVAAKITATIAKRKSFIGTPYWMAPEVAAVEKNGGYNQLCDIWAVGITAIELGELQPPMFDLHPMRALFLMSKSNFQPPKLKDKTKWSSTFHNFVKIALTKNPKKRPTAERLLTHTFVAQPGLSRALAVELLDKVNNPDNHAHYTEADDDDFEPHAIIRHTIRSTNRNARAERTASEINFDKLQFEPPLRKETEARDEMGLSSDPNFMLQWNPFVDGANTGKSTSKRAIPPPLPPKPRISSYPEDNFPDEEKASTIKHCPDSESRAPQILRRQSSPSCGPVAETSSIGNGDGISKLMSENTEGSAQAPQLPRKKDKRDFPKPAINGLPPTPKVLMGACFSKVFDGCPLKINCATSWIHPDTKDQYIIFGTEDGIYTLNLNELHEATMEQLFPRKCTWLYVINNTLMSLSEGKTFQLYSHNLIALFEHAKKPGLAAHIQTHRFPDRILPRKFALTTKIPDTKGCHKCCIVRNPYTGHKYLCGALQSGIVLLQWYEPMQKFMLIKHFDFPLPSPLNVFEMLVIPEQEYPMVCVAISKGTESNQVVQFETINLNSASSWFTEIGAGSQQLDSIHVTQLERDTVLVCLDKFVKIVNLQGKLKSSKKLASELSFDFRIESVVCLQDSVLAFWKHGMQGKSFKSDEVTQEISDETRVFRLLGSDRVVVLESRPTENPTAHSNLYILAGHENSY
Procedure, shortened: as §1

PHK, sequence (Q16816 whole entry): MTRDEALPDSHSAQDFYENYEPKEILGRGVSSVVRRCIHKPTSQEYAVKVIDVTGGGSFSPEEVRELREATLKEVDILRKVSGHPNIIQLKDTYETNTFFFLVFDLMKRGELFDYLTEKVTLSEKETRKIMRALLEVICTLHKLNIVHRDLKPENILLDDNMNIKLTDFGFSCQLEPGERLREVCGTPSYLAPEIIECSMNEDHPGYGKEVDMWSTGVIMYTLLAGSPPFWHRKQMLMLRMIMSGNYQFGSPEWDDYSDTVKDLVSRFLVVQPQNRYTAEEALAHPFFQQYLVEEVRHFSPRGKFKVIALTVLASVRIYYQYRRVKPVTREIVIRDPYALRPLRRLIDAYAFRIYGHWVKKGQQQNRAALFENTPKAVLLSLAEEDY

SMILES	remaining activity at 1 µM [1]	remaining activity at 1 µM [2]	remaining activity at 1 µM [3]	remaining activity at 1 µM [4]	remaining activity at 1 µM [5]	remaining activity at 1 µM [6]	remaining activity at 1 µM [7]	remaining activity at 1 µM [8]	remaining activity at 1 µM [9]	remaining activity at 1 µM [10]	remaining activity at 1 µM [11]	remaining activity at 1 µM [12]	Residual activity, % [7]
N=C(N)NCCC[C@@H](NC(=O)CNC(=O)[C@@H](CCCNC(=N)N)NC(=O)[C@@H](CCCNC(=N)N)NC(=O)Cn1cc(CNCc2nc3c(sc4ccc(Br)cc43)c(=O)[nH]2)nn1)C(=O)N[C@H](CCCCN)C(N)=O [Compound 3, BBTP-Amt-(D-Arg)2-Gly-D-Arg-D-Lys-NH2]	78 ± 6%	132 ± 6%	95 ± 10%	55 ± 4%	95 ± 2%	60 ± 3%	5 ± 1%	100 ± 8%	99 ± 10%	118 ± 16%	50 ± 7%	98 ± 3%	–
N=C(N)NCCC[C@@H](NC(=O)CCCCCNCc1nc2c(sc3cc(Br)cnc32)c(=O)[nH]1)C(=O)N[C@H](CCCNC(=N)N)C(=O)N[C@H](CCCNC(=N)N)C(=O)N[C@H](CCCNC(=N)N)C(=O)N[C@H](CCCNC(=N)N)C(=O)N[C@H](CCCNC(=N)N)C(=O)N[C@H](CCCCN)C(N)=O [ARC-3126, BPTP-Ahx-(D-Arg)6-D-Lys-NH2] (X3-[dR][dR][dR][dR][dR][dR][dK]-NH2)	128 ± 10%	113 ± 13%	109 ± 2%	82 ± 1%	112 ± 21%	95 ± 15%	0%	112 ± 17%	88 ± 17%	111 ± 13%	75 ± 15%	50 ± 12%	zero
N=C(N)NCCC[C@@H](NC(=O)CCCCCNC(=O)Cn1cnc2c(I)c(I)c(I)c(I)c21)C(=O)N[C@H](CCCNC(=N)N)C(=O)N[C@H](CCCNC(=N)N)C(=O)N[C@H](CCCNC(=N)N)C(=O)N[C@H](CCCNC(=N)N)C(=O)N[C@H](CCCNC(=N)N)C(=O)N[C@H](CCCCN)C(N)=O [ARC-3125, TIBI-CH2-C(=O)-Ahx-(D-Arg)6-D-Lys-NH2]	104 ± 11%	108 ± 2%	108 ± 18%	22 ± 2%	97 ± 7%	61 ± 1%	0%	72 ± 1%	9 ± 4%	123 ± 7%	16 ± 2%	102 ± 3%	–
N=C(N)NCCC[C@@H](NC(=O)CNC(=O)[C@@H](CCCNC(=N)N)NC(=O)[C@@H](CCCNC(=N)N)NC(=O)CCCCCCCNCc1nc2c(sc3cc(Br)cnc32)c(=O)[nH]1)C(=O)N[C@H](CCCCN)C(N)=O [Compound 1, BPTP-Aoc-(D-Arg)2-Gly-D-Arg-D-Lys-NH2]	109 ± 3%	116 ± 5%	103 ± 8%	43 ± 6%	106 ± 17%	111 ± 9%	9%	100 ± 6%	107 ± 3%	116 ± 3%	103 ± 13%	107 ± 12%	–
N=C(N)NCCC[C@@H](NC(=O)CNC(=O)[C@@H](CCCNC(=N)N)NC(=O)[C@@H](CCCNC(=N)N)NC(=O)CCCCCCCNCc1nc2c(sc3ccc(Br)cc32)c(=O)[nH]1)C(=O)N[C@H](CCCCN)C(N)=O [Compound 2, BBTP-Aoc-(D-Arg)2-Gly-D-Arg-D-Lys-NH2]	98 ± 4%	113 ± 10%	106 ± 7%	34 ± 2%	128 ± 13%	60 ± 12%	5 ± 3%	102 ± 7%	101 ± 1%	121 ± 7%	48 ± 2%	112 ± 10%	–

— PMC8307404, “Crystal Structure-Guided Design of Bisubstrate Inhibitors and Photoluminescent Probes for Protein Kinases of the PIM Family” (Molecules, 2021)
